Like-named read-outs stand apart in the source and are kept apart here.
Key:
[1] = molecular target: T1, chimera leptin receptor (ObR-Fc) (UniProt P48356 22-839); assay: SPR
T1 sequence (looked up): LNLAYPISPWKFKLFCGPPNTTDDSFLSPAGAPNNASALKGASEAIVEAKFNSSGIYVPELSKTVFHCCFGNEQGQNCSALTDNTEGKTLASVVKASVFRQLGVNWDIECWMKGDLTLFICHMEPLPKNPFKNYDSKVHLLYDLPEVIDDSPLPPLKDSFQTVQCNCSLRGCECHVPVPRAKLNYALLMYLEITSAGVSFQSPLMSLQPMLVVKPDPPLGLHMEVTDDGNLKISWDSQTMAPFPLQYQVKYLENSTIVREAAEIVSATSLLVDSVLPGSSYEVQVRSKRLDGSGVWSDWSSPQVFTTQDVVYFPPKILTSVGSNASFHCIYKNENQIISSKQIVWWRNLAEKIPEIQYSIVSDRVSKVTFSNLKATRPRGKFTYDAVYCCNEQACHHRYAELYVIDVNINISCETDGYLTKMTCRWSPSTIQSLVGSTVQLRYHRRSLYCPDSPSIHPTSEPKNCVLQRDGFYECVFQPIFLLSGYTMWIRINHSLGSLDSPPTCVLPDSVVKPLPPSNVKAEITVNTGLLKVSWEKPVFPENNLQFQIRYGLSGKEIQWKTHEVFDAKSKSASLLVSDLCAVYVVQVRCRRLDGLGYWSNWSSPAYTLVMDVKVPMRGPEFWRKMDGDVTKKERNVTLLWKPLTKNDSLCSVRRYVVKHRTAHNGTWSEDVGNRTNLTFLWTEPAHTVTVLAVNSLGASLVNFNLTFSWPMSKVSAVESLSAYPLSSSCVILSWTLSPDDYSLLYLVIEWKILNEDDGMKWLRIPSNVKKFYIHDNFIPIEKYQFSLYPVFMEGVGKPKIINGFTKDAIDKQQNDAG

[2] = molecular target: T1, chimera leptin receptor (ObR-Fc); assay: SPR; remark: listed apart in the source

B1: Mouse recombinant leptin (ligand, UniProt P41160 22-167, looked up)
chain: VPIQKVQDDTKTLIKTIVTRINDISHTQSVSAKQRVTGLDFIPGLHPILSLSKMDQTLAVYQQVLTSLPSQNVLQIANDLENLRDLLHLLAFSKSCSLPQTSGLQKPESLDGVLEASLYSTEVVALSRLQGSLQDILQQLDVSPEC
With B1 the Kd [1] was 0.1 nM and the Kd [2] was 0.337 nM.

Reference: PMC4197010 (Journal of controlled release : official journal of the …, 2014)
